From the supplement of paper PMC5998384

What was measured:
HeLa Kyoto [1] = experiment: solubility in G1/S (NP-40 vs SDS abundance) (log2 ratio); higher = more soluble; settings: cell cycle stage: G1/S
HeLa Kyoto [2] = experiment: solubility change mitosis vs G1/S (difference of NP-40 vs SDS log2 ratios) (log2 ratio difference); higher = more soluble in mitosis
HeLa Kyoto [3] = experiment: thermal stability score vs G1/S (z-score of summed log2 fold changes over temperatures); higher = more thermally stable than in G1/S
[4] = cell cycle stage: early G1 (4.5 h after nocodazole release)
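Throughout, for solubility change mitosis vs G1/S (difference of NP-40 vs SDS log2 ratios): synchronized HeLa Kyoto cells (double thymidine block for G1/S, nocodazole release for mitosis), protein amounts in NP-40 versus SDS lysates quantified by mass spectrometry, three biological replicates.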
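Throughout, for solubility in G1/S (NP-40 vs SDS abundance): HeLa Kyoto cells arrested at G1/S by double thymidine block, proteins quantified by TMT10plex mass spectrometry in mild NP-40 versus SDS extracts, three biological replicates.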
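Throughout, for thermal stability score vs G1/S (z-score of summed log2 fold changes over temperatures): synchronized HeLa Kyoto cells, proteins quantified by TMT10plex mass spectrometry, three biological replicates, mitosis taken 0.5 h after nocodazole release, G1/S directly after double thymidine block.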

Row | Substance | solubility in G1/S (log2) (HeLa Kyoto [1]) | solubility change mitosis (log2) (HeLa Kyoto [2]) | thermal stability score (HeLa Kyoto [3]; [4]) | thermal stability score (HeLa Kyoto [3]; cell cycle stage: mitosis)
1 | MSWLFGVNKGPKGEGAGPPPPLPPAQPGAEGGGDRGLGDRPAPKDKWSNFDPTGLERAAKAARELEHSRYAKEALNLAQMQEQTLQLEQQSKLKEYEAAVEQLKSEQIRAQAEERRKTLSEETRQHQARAQYQDKLARQRYEDQLKQQQLLNEENLRKQEESVQKQEAMRRATVEREMELRHKNEMLRVETEARARAKAERENADIIREQIRLKASEHRQTVLESIRTAGTLFGEGFRAFVTDRDKVTATVAGLTLLAVGVYSAKNATAVTGRFIEARLGKPSLVRETSRITVLEALRHPIQVSRRLLSRPQDVLEGVVLSPSLEARVRDIAIATRNTKKNRGLYRHILLYGPPGTGKTLFAKKLALHSGMDYAIMTGGDVAPMGREGVTAMHKLFDWANTSRRGLLLFMDEADAFLRKRATEEISKDLRATLNAFLYHMGQHSNKFMLVLASNLPEQFDCAINSRIDVMVHFDLPQQEERERLVRLHFDNCVLKPATEGKRRLKLAQFDYGRKCSEVARLTEGMSGREIAQLAVSWQATAYASKDGVLTEAMMDACVQDAVQQYRQKMRWLKAEGPGRGVEHPLSGVQGETLTSWSLATDPSYPCLAGPCTFRICSWMGTGLCPGPLSPRMSCGGGRPFCPPGHPLL [ATAD3B] | -0.105 | -0.00813 | 0.595 | 0.439
2 | MEEEDEEARALLAGGPDEADRGAPAAPGALPALCDPSRLAHRLLVLLLMCFLGFGSYFCYDNPAALQTQVKRDMQVNTTKFMLLYAWYSWPNVVLCFFGGFLIDRVFGIRWGTIIFSCFVCIGQVVFALGGIFNAFWLMEFGRFVFGIGGESLAVAQNTYAVSWFKGKELNLVFGLQLSMARIGSTVNMNLMGWLYSKIEALLGSAGHTTLGITLMIGGITCILSLICALALAYLDQRAERILHKEQGKTGEVIKLTDVKDFSLPLWLIFIICVCYYVAVFPFIGLGKVFFTEKFGFSSQAASAINSVVYVISAPMSPVFGLLVDKTGKNIIWVLCAVAATLVSHMMLAFTMWNPWIAMCLLGLSYSLLACALWPMVAFVVPEHQLGTAYGFMQSIQNLGLAIISIIAGMILDSRGYLFLEVFFIACVSLSLLSVVLLYLVNRAQGGNLNYSARQREEIKFSHTE [MFSD1] | -0.268 | -0.327 | -0.307 | -0.166
3 | MAAVLESLLREEVSVAAVVRWIARSTQGSEDNAGEAAALSSLRALRKEFVPFLLNFLREQSSRVLPQGPPTPAKTPGASAALPGRPGGPPRGSRGARSQLFPPTEAQSTAAEAPLARRGGRRRGPGPARERGGRGLEEGVSGESLPGAGGRRLRGSGSPSRPSLTLSDPPNLSNLEEFPPVGSVPPGPTGTKPSRRINPTPVSEERSLSKPKTCFTSPPISCVPSSQPSALDTSPWGLGLPPGCRSLQEEREMLRKERSKQLQQSPTPTCPTPELGSPLPSRTGSLTDEPADPARVSSRQRLELVALVYSSCIAENLVPNLFLELFFVFQLLTARRMVTAKDSDPELSPAVLDSLESPLFQSIHDCVFFAVQVLECHFQVLSNLDKGTLKLLAENERLLCFSPALQGRLRAAYEGSVAKVSLVMPPSTQAVSFQPETDNRANFSSDRAFHTFKKQRDVFYEVLREWEDHHEEPGWDFEKGLGSRIRAMMGQLSAACSHSHFVRLFQKQLLQMCQSPGGAGGTVLGEAPDVLSMLGADKLGRLWRLQERLMAPQSSGGPCPPPTFPGCQGFFRDFILSASSFQFNQHLMDSLSLKIQELNGLALPQHEPNDEDGESDVDWQGERKQFAVVLLSLRLLAKFLGFVAFLPYRGPEPPPTGELQDSILALRSQVPPVLDVRTLLQRGLQARRAVLTVPWLVEFLSFADHVVPLLEYYRDIFTLLLRLHRSLVLSQESEGKMCFLNKLLLLAVLGWLFQIPTVPEDLFFLEEGPSYAFEVDTVAPEHGLDNAPVVDQQLLYTCCPYIGELRKLLASWVSGSSGRSGGFMRKITPTTTTSLGAQPSQTSQGLQAQLAQAFFHNQPPSLRRTVEFVAERIGSNCVKHIKATLVADLVRQAESLLQEQLVTQGEEGGDPAQLLEILCSQLCPHGAQALALGREFCQRKSPGAVRALLPEETPAAVLSSAENIAVGLATEKACAWLSANITALIRREVKAAVSRTLRAQGPEPAARGERRGCSRACEHHAPLPSHLISEIKDVLSLAVGPRDPDEGVSPEHLEQLLGQLGQTLRCRQFLCPPAEQHLAKCSVELASLLVADQIPILGPPAQYRLERGQARRLLHMLLSLWKEDFQGPVPLQLLLSPRNVGLLADTRPREWDLLLFLLRELVEKGLMGRMEIEACLGSLHQAQWPGDFAEELATLSNLFLAEPHLPEPQLRACELVQPNRGTVLAQS [CDAN1] | 0.0358 | 0.117 | 0.128 | -0.765
4 | DYNC2H1 | -0.273 | 0.0553 | 0.756 | 0.972
5 | MPDIIWVFPPQAEAEEDCHSDTVRADDDEENESPAETDLQAQLQMFRAQWMFELAPGVSSSNLENRPCRAARGSLQKTSADTKGKQEQAKEEKARELFLKAVEEEQNGALYEAIKFYRRAMQLVPDIEFKITYTRSPDGDGVGNSYIEDNDDDSKMADLLSYFQQQLTFQESVLKLCQPELESSQIHISVLPMEVLMYIFRWVVSSDLDLRSLEQLSLVCRGFYICARDPEIWRLACLKVWGRSCIKLVPYTSWREMFLERPRVRFDGVYISKTTYIRQGEQSLDGFYRAWHQVEYYRYIRFFPDGHVMMLTTPEEPQSIVPRLRTRNTRTDAILLGHYRLSQDTDNQTKVFAVITKKKEEKPLDYKYRYFRRVPVQEADQSFHVGLQLCSSGHQRFNKLIWIHHSCHITYKSTGETAVSAFEIDKMYTPLFFARVRSYTAFSERPL [FBXO9] | -0.365 | 0.156 | 0.568 | 0.333
6 | MEQAPPDPERQLQPAPLEPLGSPDAGLGAAVGKEAEGAGEESSGVDTMTHNNFWLKKIEISVSEAEKRTGRNAMNMQETYTAYLIETRSVEHTDGQSVLTDSLWRRYSEFELLRSYLLVYYPHIVVPPLPEKRAEFVWHKLSADNMDPDFVERRRIGLENFLLRIASHPILCRDKIFYLFLTQEGNWKETVNETGFQLKADSRLKALNATFRVKNPDKRFTDLKHYSDELQSVISHLLRVRARVADRLYGVYKVHGNYGRVFSEWSAIEKEMGDGLQSAGHHMDVYASSIDDILEDEEHYADQLKEYLFYAEALRAVCRKHELMQYDLEMAAQDLASKKQQCEELVTGTVRTFSLKGMTTKLFGQETPEQREARIKVLEEQINEGEQQLKSKNLEGREFVKNAWADIERFKEQKNRDLKEALISYAVMQISMCKKGIQVWTNAKECFSKM [SNX4] | 0.0889 | -0.0064 | 0.919 | 0.324
